Measured values from publication PMC4427203 (2015).

Biological target: Hsp90 600-709 (Saccharomyces cerevisiae (strain ATCC …, UniProt P02829))
Experiment: Kd quoted from earlier work (method not stated here)

B1: AIP 172-315 (protein)
chain: DEEKAKAVPLIHQEGNRLYREGHVKEAAAKYYDAIACLKNLQMKEQPGSPEWIQLDQQITPLLLNYCQCKLVVEEYYEVLDHCSSILNKYDDNVKAYFKRGKAHAAVWNAQEAQADFAKVLELDPALAPVVSRELRALEARIRQ
Kd: 13.3 µM
